Format in all cases: biochemical
In assay [1] the target is T1, thrombin (Homo sapiens, UniProt P00734). Put plainly: Thrombin cleavage of Compounds 1, 4, 5 and 6 by 1.4 nM thrombin (HPLC). As to conditions: thrombin 1.4 nM, peptide 50 μM, PBS, 37° C. The protocol:
FIG. 9 depicts the cleavage of Compounds 1, 4, 5 and 6 by 1.4 nM thrombin. Compounds 1, 4 and 5 incorporate PABC and different thrombin-cleavable substrates.
50 μL of peptide (1 mM) in water was added to 900 μL PBS. The mixture was incubated at 37° C. for 30 min, followed by 50 μL of thrombin (27.8 nM, 1 μg/mL), giving the following approximate initial concentrations: thrombin=1.4 nM, peptide=50 μM. The mixture was incubated at 37° C. Aliquots (95 μL) at various time points were quenched with 5 μL of hirudin (2 μM) and injected into the HPLC (C-18 column, CH3CN/H2O, 0 to 70% over 12 minutes, 60° C. 0.5 mL/min, ? =280 nm). The decreases of peptide peak areas were used to calculate yield.

Assay [2] concerns the target T1, thrombin. The assay can be described thus: Thrombin cleavage of Compound 7 (HPLC). The conditions noted are these: 1.4 nm thrombin, peptide 10 μM, PBS, 37° C., after 30 minutes. The method, then: FIG. 5 depicts the cleavage of Compound 7 by thrombin. Upon cleavage with 1.4 nM thrombin in PBS, the clean synthetic procoagulant peptide is released, as well as the portion of the molecule comprising the thrombin substrate, the GGGG linker, and the N-terminal cysteine. To conduct the reaction, 21 μL of peptide (0.24 mM) in water was added to 476.5 μL PBS. The mixture was incubated at 37° C. for 30 min, followed by 2.5 μL of thrombin (278 nM, 10 μg/mL), giving the following approximate initial concentrations: thrombin=1.4 nM, peptide=10 μM. The mixture was incubated at 37° C. Aliquots (60 μL) at various time points were quenched with 1 μL of hirudin (10 μM) and injected into the HPLC (C-18 column, CH3CN/H2O, 0 to 70% over 12 minutes, 60° C. 0.5 mL/min, ? =280 nm). Compound 7 was cleaved rapidly by 1.4 nm thrombin. Approximately 90% of Compound 7 was cleaved after 30 minutes.

In assay [3] the test system is plasma (TGA assay). Put plainly: Cleavage of Compound 7 during the TGA assay (HPLC of plasma). The conditions noted are these: plasma at the end of TGA assay. The protocol: Plasma at the end of TGA assay for Compound 7 was transferred into cold CH3CN (1 mL) and centrifuged at 13 k rpm for 10 min. Supernatant (1.1 mL) was transferred to a new vial and dried by speedvac. The resulting solid was reconstituted with 30 μL of H2O and injected into the HPLC for analysis.

*1 amine or outer side, *2 acyl side, *3 side chain or, on linkers, in order; H or OH if unused. Bridges are numbered along the chain shown (N, C = ends). Where no end group is shown, it is not given here. [ ]: non-standard residue; d: D form. The star is where a group is joined. PABC = O=C(OCc1ccc(N[*:1])cc1)[*:2]; Pip = O=C(O)[C@@H]1CCCCN1; Acm = CC(=O)NC*

In the case of “Ala-Leu-Val-Pro-Arg-Ile-Val-Gly-Gly-Gln-Glu-NH2 (ALVPRIVGGQE-NH2) [Compound 6]”, the “Thrombin-mediated release of peptide IVGGQE” value in assay [1] is listed as “not observed”.
On to “Cys(Acm)-Gly-Gly-Gly-Gly-Dphe-Pip-Arg-PABC-rRAPGKLTCLASYCWLFWTGIA-NH2 (disulfide) (C(Acm)GGGG[dF][Pip]R[PABC][dR]RAPGKLTCLASYCWLFWTGIA-NH2; disulfide 18-23 (inferred)) [Compound 7]”, for which the “Compound cleaved by thrombin” value in assay [2] is “Approximately 90%”. Moreover, the “Cleavage during the course of a TGA assay” value in assay [3] is “cleaved completely”.
